Reference: patent publication US8822187B1, “Polypeptides, nucleic acid molecules, and methods for synthesis of triterpenes” (University of Kentucky Research Foundation, priority 2011, dated 2014)

T1: Botryococcus braunii race B squalene synthase-like 1 (SSL-1), wild type, hexa-histidine tagged, SEQ ID NO: 2 (Botryococcus braunii, UniProt G0Y286)
T1 construct: FPP substrate with or without NADPH
T1 sequence (G0Y286 1-403): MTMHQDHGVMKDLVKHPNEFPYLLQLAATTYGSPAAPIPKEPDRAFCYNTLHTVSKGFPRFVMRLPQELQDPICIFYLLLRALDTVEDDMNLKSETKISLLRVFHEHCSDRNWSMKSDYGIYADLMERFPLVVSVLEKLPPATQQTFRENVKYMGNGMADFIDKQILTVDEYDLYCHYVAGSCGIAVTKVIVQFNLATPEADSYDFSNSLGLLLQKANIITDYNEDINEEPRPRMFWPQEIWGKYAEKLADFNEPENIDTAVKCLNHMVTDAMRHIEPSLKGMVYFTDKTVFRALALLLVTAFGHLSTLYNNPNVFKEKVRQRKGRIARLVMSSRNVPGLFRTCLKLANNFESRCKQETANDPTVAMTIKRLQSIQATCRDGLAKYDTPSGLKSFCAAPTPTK

B1: SSL-3: Botryococcus braunii race B squalene synthase-like 3 enzyme; converts PSPP to botryococcene (protein)
chain: MKLREVLQHPGEIIPLLQMMVMAYRRKRKPQDPNLAWCWETLIKVSRSYVLVIQQLPEVLQDPICVNYLVLRGLDTLQDDMAIPAEKRVPLLLDYYNHIGDITWKPPCGYGQYVELIEEYPRVTKEFLKLNKQDQQFITDMCMRLGAEMTVFLKRDVLTVPDLDLYAFTNNGPVAICLTKLWVDRKFADPKLLDREDLSGHMAMFLGKINVIRDIKEDVLEDPPRIWWPKEIWGKYLKDLRDIIKPEYQKEALACLNDILTDALRHIEPCLQYMEMVWDEGVFKFCAVPELMSLATISVCYNNPKVFTGVVKMRRGETAKLFLSVTNMPALYKSFSAIAEEMEAKCVREDPNFALTVKRLQDVQALCKAGLAKSNGKVSAKGA

What was measured:
[1] = target: T1, Botryococcus braunii race B squalene synthase-like 1 (SSL-1), wild type, hexa-histidine tagged, SEQ ID NO: 2; assay: Michaelis-Menten enzyme kinetics of the SSL-1 reaction (radiolabeled FPP to PSPP); format: biochemical
Procedure: FIG. 5 depicts Michaelis-Menten enzyme kinetics of the SSL-1 reaction. Enzyme assays (50 μl) were set up as described in the methods section with purified SSL-1 (0.2-1.0 μg), 0.1% triton X-100, ±2 mM NADPH, and the indicated concentration of ^3H-FPP. Assays were incubated for 15 min at 37° C. and stopped by addition of 50 μl 0.5 M EDTA. The reactions were then extracted 3× with 200 μl water saturated 1-butanol and pooled in a 4 ml glass screw cap vial. The butanol was evaporated with a stream of nitrogen gas and the white residue was resuspended in 2 ml of acid phosphatase solution (20% 1-propanol (v/v), 100 mM sodium acetate pH 4.7, 0.1% Triton X-100, 10 units sweet potato acid phosphatase) and incubated overnight (12-16 h) in a 28° C. shaker. […] The standards were visualized with iodine vapors and the zones corresponding to FOH (rf=0.65) and PSOH (rf=0.45) were scraped and analyzed by scintillation spectroscopy. […] The data was analyzed using the SigmaPlot Enzyme Kinetics 1.3 software. […]
Purification of the bacterial expressed enzymes was afforded by the amino-terminal hexa-histidine tag using His-Select Cobalt affinity gel (Sigma) columns according the manufacturer's recommendations. Recovery of proteins with the expected molecular sizes was determined by SDS-PAGE. […]

[2] = Secondary enzyme assays of SSL-3 or SSL-2 with PSPP versus FPP; format: biochemical; conditions: 2 mM NADPH, 1 μg enzyme, 37° C., 15 min
Procedure: Two primary enzyme assays (500 μl) were set up with 20 μg of purified SSL-1 or Nicotiana benthamiana squalene synthase (TSS) plus 40 μM ^3H-FPP. The assays were incubated at 37° C. for 1 h, then extracted 3× with 500 μl water saturated 1-butanol, pooled, and evaporated under a stream of nitrogen gas. The white residue was resuspended in 50 μl of 25 mM NH4HCO3 in 70% ethanol (v/v). An aliquot of the resuspension was analyzed by the acid phosphatase assay (described in supplemental FIG. 4) and shown to consist of 45% and 40% PSPP for the SSL-1 and TSS primary incubations, respectively. […] It was calculated that 1 μl of each resuspension contained ˜150 pmoles of 3H-PSPP. […] For comparison, enzyme assays were also set up containing 3 μM ^3H-FPP, 2 mM NADPH and either 1 μg each of SSL-1 plus SSL-3, or SSL-1 plus SSL-2. Additional control assays contained 5 μM ^3H-FPP, 2 mM NADPH, and either 1 μg of SSL-3 or SSL-2. The reactions were incubated at 37° C. for 15 min, stopped by addition of 50 μl 0.5 M EDTA, and extracted with 100 μl n-hexane. Aliquots of the hexane extracts, along with standards of squalene and botryococcene, were separated by silica TLC using n-hexane as the developing solvent. Standards were visualized with iodine vapors and the corresponding zones were analyzed by scintillation spectroscopy. […]

[3] = Purified bacterial-expressed enzymes incubated with FPP, products by GC-MS or TLC/scintillation counting; format: biochemical; conditions: FPP as substrate, enzyme assayed alone
Text: (§1) FIG. 6 depicts the functional characterization of the squalene synthase-like genes of Botryococcus braunii race B. The squalene synthase-like genes, SSL-1, SSL-2 and SSL-3, were expressed in yeast separately (SSL-1 (B), SSL-2(C) or SSL-3(D)) or in combinations (SSL-1+SSL-2(E), SSL-1+SSL-3(F)) and the hexane extractable metabolites profiled by GC-MS. The chemical profile of yeast not engineered with any gene constructs serves as the background control (A). […] Data (J) represents mean±S.E.M. obtained from three independent experiments (n=3). The chromatograms (A-I) are also annotated for the elution behavior of botryococcene (1), squalene (2), presqualene alcohol (3) and bisfarnesyl ether (4).
The recombinant vectors were transformed into E. coli strain BL21(DE3) according to the manufacturer's recommendations (Novagen). The selected lines were grown with kanamycin selection at 37° C. with vigorous shaking until the cultures reached an optical density of ˜0.8 (OD600 nm), then expression of the corresponding SSL gene induced by addition of 0.5 mM isopropylthio-β-D-galactoside (IPTG) and the cultures incubate for an additional 3 to 20 h with shaking at room temperature. One hundred ml of the culture was subject to centrifugation at 4,000 g for 10 min, the pelleted cells resuspended in 10 ml of lysis buffer containing 50 mM NaH2PO4, pH 7.8, 300 mM NaCl, 10 mM imidazole, 1 mM MgCl2, 1 mM PMSF, 1% glycerol (v/v), then sonicated 4× for 10 sec with a microprobe sonicator at 60% maximum power. The samples were cooled on ice for 2 min between sonication treatments. The sonicate was centrifuged at 16,000 g for 10 min at 4° C. and the supernatant used for purification of the hexa-histidine tagged enzymes.
Purification of the bacterial expressed enzymes was afforded by the amino-terminal hexa-histidine tag using His-Select Cobalt affinity gel (Sigma) columns according the manufacturer's recommendations. Recovery of proteins with the expected molecular sizes was determined by SDS-PAGE. The purified protein fractions were concentrated using Amicon Ultra (0.5 ml, 10K) centrifugation filter units and stored in 300 mM NaCl, 20 mM Tris-HCl pH 7.5, 5 mM dithiothreitol, 2 mM MgCL2, 50% glycerol (v/v) at −20° C. for 2-3 weeks without noticeable loss of activity.
Typical enzyme assays were initiated by mixing aliquots of purified enzyme with 50 mM Mops, pH 7.3, 20 mM MgCl2, 2.5 mM 2-mercaptoethanol, 10 μM [1-^3H]-FPP (˜2×10^5 dpm total), and 2 mM NADPH in total reaction volume of 50 μl. Reactions were incubated at 37° C. for 1 h and then extracted with 100 μl n-hexane or 100 ul MTBE. Forty μl of the n-hexane or MTBE extract was then spotted onto silica TLC plates with authentic standards of botryococcene and squalene and developed with n-hexane, or standards of bisfarnesyl ether and developed with n-hexane:MTBE, 25:1. The standards were visualized with iodine vapors and TLC zones corresponding to the standards were scrapped and analyzed by scintillation spectrometry. If Botryococcus lysate was added to enzyme assays, typically 5 μl of lysate (corresponding to 10 μg total protein) prepared from B. braunii cells according to Okada et al. (1) was added. […] Extracts were resuspended in 50 μl hexane and an aliquot analyzed by GC-MS with a Varian CP-3800 GC coupled to a Varian Saturn 2200 MS/MS (Varian Medical Systems) using a Supelco SLB-5 ms fused silica capillary column (30 m×0.25 mm×0.25 μM film thickness, Supelco). […]

TN7 yeast line = assay: Expression of SSL genes in TN7 yeast line, hexane extractable metabolites by GC-MS; format: cell-based; conditions: gene expressed separately in yeast
Text: as §1
FIG. 10 includes a comparison of botryococcene production in yeast engineered with different configurations of SSL-1 and SSL-3. Yeast line TN7 was engineered with the SSL-1 and SSL-3 genes on separate plasmids (squares), with gene fusions (SSL-1 fused to SSL-3 via a triplet repeat of GGSG (triangles), or vice versa (diamonds)), or with 63 or 71 amino acids of the carboxy terminus of the Botryococcus squalene synthase, sequences containing a membrane spanning domain, appended to the carboxy termini of the SSL-1 and SSL-3 enzymes, respectively (circles). The data represents mean±S.E.M.
The various recombinant yeast expression vectors were introduced into the TN7 yeast line via lithium acetate transformation, followed by selection for uracil and leucine auoxtrophic growth (Takahashi, et al. (2007)). […] Individual colonies of TN7 and the various TN7-transformants were subsequently grown in 25 ml of YPDE (nutrient rich) or Yeast Synthetic Drop-out medium (selection) for the indicated time at 25° C. before analyzing the cultures for production of novel triterpene components. In brief, 1 ml aliquots of the culture were combined with 1 ml of acetone, vigorously mixed, and incubated at room temperature for 10 min. One ml of hexane was added and mixed vigorously for 60 sec. […] The dried extract was resuspended in 50-500 μl of n-hexane and a 1 μl aliquot analyzed by GC-MS as described above. […]

Molecule	stimulation of activity by NADPH addition ([1]; NADPH addition, radiolabeled FPP substrate)	effect of NADPH addition on enzyme activity (difference) ([1]; ±2 mM NADPH, 3H-FPP substrate, 15 min at 37° C.)	biosynthesis from PSPP versus FPP [2]	squalene or botryococcene biosynthesis by purified enzyme in vitro [3]	products accumulating in yeast (TN7 yeast line)
NC(=O)C1=CN([C@@H]2O[C@H](COP(=O)(O)OP(=O)(O)OC[C@H]3O[C@@H](n4cnc5c(N)ncnc54)[C@H](OP(=O)(O)O)[C@@H]3O)[C@@H](O)[C@H]2O)C=CC1 [NADPH]	no stimulation	less than 4%			
B1			efficiently catalyze the biosynthesis of squalene and botryococcene, respectively, from PSPP but not FPP	neither bacterial-expressed, purified enzymes exhibited any botryococcene biosynthesis	did not cause the accumulation of any distinct products
